Source: patent publication US7432308B2, “Therapeutic compositions for the treatment of a respiratory tract disease” (Universiteit Gent, priority 2001, dated 2008)

Assays:
actin = settings: Shu et al.; cited from earlier work
[1] = system: DNA (salmon sperm DNA from Sigma); assay: Effect of K+ and Mg2+ on DNAse activity: decrease in viscosity of a standardised DNA digest (capillary viscosimeter); format: biochemical
Method: The viscosity of DNA and DNA/actin solutions was measured with a calibrated capillary viscosimeter (Schott Geräte, Hofheim, Germany) equipped with an automated apparatus (Lauda, Köningshofen, Germany). The capillary viscosimeter was placed in a water bath (20.00° C.±0.05° C.) and the outflow times (t in s) were determined automatically. The viscosity (η) of the solutions is related to t by: [formula] where k and B are known constants. The effect of Mg^2+ and K^+ ions on the activity of DNAse (measured as decrease in viscosity) was determined by changing the Mg^2+ and K^+ concentration in a standardised DNA digest. DNA (salmon sperm DNA from Sigma) was digested (10 μ[…], 2,3 mg/ml DNA, 70 mM NaCl, and 3 mM CaCl2, pH 7.0) in order to determine the change in viscosity of the DNA solution.

[2] = system: DNA in the presence of rabbit skeletal actin; assay: Influence of actin polymerisation on DNAse activity: decrease in viscosity of DNA/actin solutions; format: biochemical
Method: The viscosity of DNA and DNA/actin solutions was measured with a calibrated capillary viscosimeter (Schott Geräte, Hofheim, Germany) equipped with an automated apparatus (Lauda, Köningshofen, Germany). The capillary viscosimeter was placed in a water bath (20.00° C.±0.05° C.) and the outflow times (t in s) were determined automatically. The viscosity (η) of the solutions is related to t by: […] Biol. Chem. (1971) 246: 4866-4871) (6,4 μg/ml […], 1.5 mg DNA/ml and 1.1 mg actin/ml 70 mM NaCl, 3 mM CaCl2, 0.35 mM ATP, 3.2 mM TRIS/HCl, 0.13 mM DTT, and 0.006% NaN3, pH 7,0). K^+ and Mg^2+ were supplied as K2HPO4 and MgCl2 respectively.

[3] = DNA/actin solution 1: K+ 14.0 mM, Mg2+ 0.90 mM
[4] = DNA/actin solution 2: K+ 26.0 mM, Mg2+ 0.90 mM
[5] = DNA/actin solution 3: K+ 26.0 mM, Mg2+ 2.70 mM

O=P([O-])([O-])O.[K+].[K+] [K+, potassium hydrogenophosphate]
concentration giving maximal actin polymerisation (actin): 200 mM

[Cl-].[Cl-].[Mg+2] [Mg^2+, magnesium chloride]
concentration giving maximal actin polymerisation (actin): 2 mM

B1: rhDNAse I: Recombinant human DNAse I, commercially available under the trade name Pulmozyme, also designated dornase alpha (protein, UniProt P24855 23-282, looked up)
Deoxyribonuclease-1: LKIAAFNIQTFGETKMSNATLVSYIVQILSRYDIALVQEVRDSHLTAVGKLLDNLNQDAPDTYHYVVSEPLGRNSYKERYLFVYRPDQVSAVDSYYYDDGCEPCGNDTFNREPAIVRFFSRFTEVREFAIVPLHAAPGDAVAEIDALYDVYLDVQEKWGLEDVMLMGDFNAGCSYVRPSQWSSIRLWTSPTFQWLIPDSADTTATPTHCAYDRIVVAGMLLRGAVVPDSALPFNFQAAYGLSDQLAQAISDHYPVEVMLK
modifications: dornase alfa
notes: Recombinant human DNAse I, commercially available under the trade name Pulmozyme, also designated dornase alpha
decrease in viscosity at t = 10 minutes ([1]; DNA solution 1: K+ 14.0 mM, Mg2+ 1.65 mM): 97%
η at t = 10 minutes ([1]; DNA solution 1: K+ 14.0 mM, Mg2+ 1.65 mM, η 31.5 at t = 0): 1.1 mm^2/s
decrease in viscosity at t = 10 minutes ([1]; DNA solution 2: K+ 26.0 mM, Mg2+ 1.65 mM): 97%
η at t = 10 minutes ([1]; DNA solution 2: K+ 26.0 mM, Mg2+ 1.65 mM, η 31.5 at t = 0): 1.1 mm^2/s
decrease in viscosity at t = 10 minutes ([1]; DNA solution 3: K+ 20.0 mM, Mg2+ 0.90 mM): 97%
η at t = 10 minutes ([1]; DNA solution 3: K+ 20.0 mM, Mg2+ 0.90 mM, η 33.9 at t = 0): 1.1 mm^2/s
decrease in viscosity at t = 10 minutes ([1]; DNA solution 4: K+ 20.0 mM, Mg2+ 2.70 mM): 97%
η at t = 10 minutes ([1]; DNA solution 4: K+ 20.0 mM, Mg2+ 2.70 mM, η 33.9 at t = 0): 1.1 mm^2/s
viscosity η of the DNA solution after digestion ([1]; all tested K+ and Mg2+ concentrations, value is near the viscosity of water): ~1 mm^2/s
decrease in viscosity at t = 10 min [2, 3]: 32%
decrease in viscosity at t = 20 min [2, 3]: 34%
decrease in viscosity at t = 30 min [2, 3]: 40%
η at t = 20 min [2, 3]: 9.4 mm2/s
η at t = 30 min [2, 3]: 8.6 mm2/s
η at t = 10 min ([2]; DNA/actin solution 1: K+ 14.0 mM, Mg2+ 0.90 mM, η 14.3 at t = 0): 9.8 mm2/s
decrease in viscosity at t = 30 min [2, 4]: 46%
η at t = 30 min [2, 4]: 7.7 mm2/s
decrease in viscosity at t = 10 min [2, 5]: 58%
decrease in viscosity at t = 20 min [2, 5]: 59%
decrease in viscosity at t = 30 min [2, 5]: 61%
η at t = 10 min [2, 5]: 6.1 mm2/s
η at t = 20 min [2, 5]: 5.8 mm2/s
η at t = 30 min [2, 5]: 5.5 mm2/s
DNAse activity in DNA/actin solutions ([2]; at high levels of Mg^2+ and K^+): highest
